Patent publication US20140162947A1
One block for each substance: values may come before it.

Columns and labels:
Assay in all cases: cell-based or functional assay
[1] = target: CXCR3 (mouse) (UniProt O88410)
[2] = target: CXCR4 (mouse) (UniProt P70658)
[3] = target: CCR7 (mouse) (UniProt P47774)
Chain of UniProt P47774 (P47774 25-378): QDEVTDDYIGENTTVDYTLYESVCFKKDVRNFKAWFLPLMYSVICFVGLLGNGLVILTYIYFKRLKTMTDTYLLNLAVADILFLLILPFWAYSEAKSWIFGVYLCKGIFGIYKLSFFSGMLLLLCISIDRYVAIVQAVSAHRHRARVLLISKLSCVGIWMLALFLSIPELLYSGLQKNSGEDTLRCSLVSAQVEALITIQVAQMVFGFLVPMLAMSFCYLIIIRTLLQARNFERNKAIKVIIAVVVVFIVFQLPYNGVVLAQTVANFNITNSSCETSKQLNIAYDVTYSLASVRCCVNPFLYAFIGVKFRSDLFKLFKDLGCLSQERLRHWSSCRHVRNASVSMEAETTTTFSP

Chain of UniProt P70658 (P70658 whole entry): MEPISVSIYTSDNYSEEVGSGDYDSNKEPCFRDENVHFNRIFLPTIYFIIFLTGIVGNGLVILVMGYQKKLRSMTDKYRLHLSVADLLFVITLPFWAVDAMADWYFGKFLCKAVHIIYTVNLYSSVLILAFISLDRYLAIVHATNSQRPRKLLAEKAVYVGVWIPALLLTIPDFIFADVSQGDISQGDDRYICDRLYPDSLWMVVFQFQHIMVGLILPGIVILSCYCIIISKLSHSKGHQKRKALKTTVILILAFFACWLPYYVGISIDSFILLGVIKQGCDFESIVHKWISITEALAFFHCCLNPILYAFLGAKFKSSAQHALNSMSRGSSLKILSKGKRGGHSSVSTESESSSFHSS
Chain of UniProt O88410 (O88410 whole entry): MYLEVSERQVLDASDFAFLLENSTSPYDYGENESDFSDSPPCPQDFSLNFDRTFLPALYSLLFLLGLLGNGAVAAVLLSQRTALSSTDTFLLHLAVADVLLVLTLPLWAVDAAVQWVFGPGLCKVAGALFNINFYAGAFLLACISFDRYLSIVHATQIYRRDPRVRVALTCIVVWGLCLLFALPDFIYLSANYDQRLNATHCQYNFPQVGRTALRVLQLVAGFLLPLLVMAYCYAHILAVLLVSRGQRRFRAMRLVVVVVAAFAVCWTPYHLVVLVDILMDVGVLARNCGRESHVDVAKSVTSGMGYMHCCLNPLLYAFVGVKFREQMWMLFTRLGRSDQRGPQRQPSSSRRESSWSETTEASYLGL

migration of WT GMP- and CMP-derived PACs in a transwell Boyden chamber, fold over BSA control [1]: 4 fold
Substance: CXCL10 (ligand)

migration of WT CMP-derived PACs in a transwell Boyden chamber, fold over BSA control [2]: 23 fold | migration of WT GMP-derived PACs in a transwell Boyden chamber, fold over BSA control [2]: 19 fold
Substance: SDF-1α (ligand)

migration of WT GMP- and CMP-derived PACs in a transwell Boyden chamber, fold over BSA control [3]: 4 fold
Substance: CCL21 (ligand)
